Experiment: label from the status in PepcDB records
With “MTEEQVQHWFDMFGSLGYIAGFLLPFIEAFIPILPIIVFIIVNVNAFGWFIGTVLAWAGTVAGSYIVFLFFRRLNNTKYMKKVQQRTSVQRLIHFIDRRGVIPIFILMCFPFTPSALVNIVASMSHIKAHAYLTVLIISKFIMIGLVGWLGNDITTLFSNPTRLITIVVVIIIVWFVGRKIEKHFMSSSEE” the protein production was “failed”. For “MTEGGRVSNTSRVTRRTGLRTAAAVAAALPLLSASPASASRNRGRRLDVMTFNLRFASASEPHSWAVRRPVMRELLRRERPHVIGTQEGLYQQVRDIEADLGPHYDWIGTGRAGGSRDEFMAVFYDTRRLAPLEYDHFWLSDTPDVIGSNTWGGGSIRMVTRVRFRDLADGDRPFHFLNTHLDNASQYARARAAALIADRIAGLDRSQPLVVTGDFNAAAHKNAVYETMLGAGLVDTWDTAAERGKLYGTFHGYKPLVPDGDRIDWILASPGVAAHCASINAFSSNGQFPSDHLPVQASLRLA”, the protein production was “failed”. For “MTELVQQLALLDALLSNWDGVLVRMGAPDVLRDEALAALAVKLSSAESPDDLDLLLDDLFDLVEDTPAYDYVRGLIARARLDTGTVAKTRGGYAGELVSDDEKSLLFGASRLAGRALGNAVSADVEPCQVEVFFATNRKSSDASDLQFTGEHDAGGYTCGVAHVTIPVGVHRAGVLEGKRWWHLLREKDDSRRYVVLGSVEKLAEDLFTTRIVEGAPECRDLLVFLHGFNVTFEDAARQAAQFAFDLQFQGRVVLYSWPSLGSLAGYCADEERAFLSNGRFAGFLGMLEDGPWDKVHILAHSMGNRVMLYGLSGNSWPNGRISQVVFAAADVYVETFRELFPKIREKAALYTSYTSKKDRALLISGILHKAKRIGISRGEPFVMDGLETIDASKVDNGFPGHGYFAEETKLIEDISQLLGKGLSAGRRKLYQPPSKAYWDFR”, the protein production was “failed”. With “MTENNQTAPNPESLDGLSYEEAREQLVAVVGRLEAGGASLEESLALWERGEALAKRCEDWLEGARKRLATARDASSDGGTPA” the protein production was “failed”. With “MTENSRKTATELFEFLDGLGISHTTKQHEPVFTVAESQSLRDLIPGGHTKNLFVKDKKDQYFVLTVEENAVVDLKSVHKTIGAASRVSFGRPEKMLEYLGVVPGSVTVFGAINDTARQVTFVLDSDLLENELVNGHPLSNDQTTTIASKDLIRFLEATGHAPLVLKVSE” the protein production was “not failed”. With “MTENTNFKSGYSEVNGLKMYYEIHGEGKPLVLIHGGGSTIKTSFGNILPLLLKSRQIIVMELQAHGHTGDRETDLTFEQDADDVAKLLENLQITKADFLGFSNGGHTTIEIALRHKKIVDKILLASAFYKRDAVVPEFWDGFDSATLEMMPKVLQEGYLKANDDEKGLLNMFKKDVQKMKDFKGWTDEQMKSITAKTLIINGNNDVGSIEHAVEMYRILPNCELAILPGGHGTYLGAIESLPNGEWTMKYVAELIEEFFDKH” the protein production was “failed”. In the case of “MTEQHSHQFERGTDGPKVILVGVDGSDSSLHAAAYAAGLARRQHALLAVVYVQPVMAAGAALGVPVADTTDEIAADLVQYIRDATERVKDIFEVRWEFHTFRGDPYNGLVTAADELKADAVVVGASEQAGHRIVGSVAVRLVKAGRWPVTVVP”, the protein production was “not failed”. With “MTETDKKQEQENHAECEDKPKPCCVCKPEKEERDTCILFNGQDSEKCKEFIEKYKECMKGYGFEVPSAN” the protein production was “not failed”. For “MTETKTIRFLSIIGCLLAGMAASCSSRQVAPNEEGISVQKMTGFPEGEPGFSLGVSACYAGIYQGELLIAGGCNFPETPAAEGGKKKFYQGIYAADASADSVFVWRKVGQLPVAAAYGVSVSTPRGIVCVGGSNENGSLSTVYRLSLSDDKQAVIVDTLPSLPCTMDNMSGSVVDYTLFVAGGNVNGKPSNGLYCLNLGNPETGWQQLPDFPGAPRVQPVCVGQRKENETLLYLWGGFSGAFDGRSATLSTDGYCYSPSLQQWQPVSTPIGSDSVPVALGGGAGIALTDSLILCTGGVNKDIFLSALQREEMMKAAVTGGNQAAVDSLKSEAKTYMLHPAEWYRFNDRILIYNTRRDKWEEAVRSQDVARAGAALTTGQGQTFFNINGELKPGIRTPEIAKIMID”, the protein production was “failed”. In the case of “MTEYWVSQGNKWCEFCKIWIQNNPTSIRNHDLGKRHRECVDKKLTDMRERSAAKDKELKKNEKLLQQIEAKATRSYQKDIATAQQVAKANGAPEDGTSDWMLDSASGYYYNQTNGLHYDSQSGFYYSDSIGHWVTQDEAYAAVKTSSGTKVPLVKKPVSSSGAGPSVGKPPGRLVTASLNPKRAVKGAASSVDLGNNKRKRQDEKPKKVSAEEKAALKAREAARKRVEDREKPLLGLYNRPF”, the protein production was “failed”.

Source: a protein production outcome set (Wang et al. 2014)
